# Results: article doi:10.1101/2025.03.24.644915
# Tests used:
# [1] = target: VP4 spike protein, uncleaved (NTR spike), simian rotavirus A strain SA11 clone C4111 (simian rotavirus A strain SA11 (clone C4111)); test: cryo-EM structure; purified NTR-TLP (made without trypsin, with leupeptin); single particle analysis with icosahedral symmetry, 3.40 Å; spike by localized reconstruction, 3D classification, optical flow (EnRICH) and LocSpiral
# [2] = target: VP6 protein, rotavirus SA11 clone C4111 (simian rotavirus A strain SA11 (clone C4111)); test: as above
# [3] = target: VP6 protein, rotavirus SA11 clone C4111 (simian rotavirus A strain SA11 (clone C4111)); test: cryo-EM structure; purified TR-TLP (made in the presence of trypsin); single particle analysis with icosahedral symmetry, 3.48 Å; spike by localized reconstruction, 3D classification, optical flow (EnRICH) and LocSpiral
# [4] = target: VP7 glycoprotein, rotavirus SA11 clone C4111 (simian rotavirus A strain SA11 (clone C4111)); test: cryo-EM structure; purified NTR-TLP (made without trypsin, with leupeptin); single particle analysis with icosahedral symmetry, 3.40 Å; spike by localized reconstruction, 3D classification, optical flow (EnRICH) and LocSpiral
# [5] = target: VP7 glycoprotein, rotavirus SA11 clone C4111 (simian rotavirus A strain SA11 (clone C4111)); test: cryo-EM structure; purified TR-TLP (made in the presence of trypsin); single particle analysis with icosahedral symmetry, 3.48 Å; spike by localized reconstruction, 3D classification, optical flow (EnRICH) and LocSpiral
substance,measurement,setting,value
"VP4 spike protein, uncleaved (NTR spike), simian rotavirus A strain SA11 clone C4111 (natural protein)",stoichiometry N,[1],3
"VP6 protein, rotavirus SA11 clone C4111 (natural protein)",stoichiometry N,[2],3
same,stoichiometry N,[3],3
"VP7 glycoprotein, rotavirus SA11 clone C4111 (natural protein)",stoichiometry N,[4],3
same,stoichiometry N,[5],3
